These results are taken from CN117886935A (BEIJING KENUO XINCHENG TECH CO LTD, dated 2024).

Test [1] concerns the target T1, CSF-1R-mFc (human, UniProt P07333 20-512, limits assumed).
T1 construct: not shown: mouse Fc (mFc)
In words: competition ELISA: CSF1-His coated, CSF-1R-mFc 0.15 μg/ml premixed with antibody.

Test [2] has as its target T2, 人CSF-1R-his重组蛋白 (human CSF-1R-his recombinant protein) (human, UniProt P07333 20-512, limits assumed).
T2 construct: Analyte of the ForteBio assay, 60 nM; also called CD115; M-CSF-R; not shown: His tag
In words: BLI (ForteBio), antibody on AHC probe, CSF-1R-his 60 nM, 1:1 fit.

Test [3] concerns the target T1, CSF-1R-mFc. In words: competition ELISA: human IL-34 coated, CSF-1R-mFc 0.15 μg/ml premixed with antibody.
The target of test [4] is T2, 人CSF-1R-his重组蛋白 (human CSF-1R-his …). In words: BLI (ForteBio).
Test [5] concerns the target T3, CSF-1R on rhCSF-1R-CHO cells (human, UniProt P07333 20-972).
T3 construct: whole, on cells; also called 细胞表面CSF-1R; CSF-1R-CHO细胞
In words: flow cytometry on rhCSF-1R-CHO cells, FITC goat anti-human.

T3 sequence (P07333 20-972): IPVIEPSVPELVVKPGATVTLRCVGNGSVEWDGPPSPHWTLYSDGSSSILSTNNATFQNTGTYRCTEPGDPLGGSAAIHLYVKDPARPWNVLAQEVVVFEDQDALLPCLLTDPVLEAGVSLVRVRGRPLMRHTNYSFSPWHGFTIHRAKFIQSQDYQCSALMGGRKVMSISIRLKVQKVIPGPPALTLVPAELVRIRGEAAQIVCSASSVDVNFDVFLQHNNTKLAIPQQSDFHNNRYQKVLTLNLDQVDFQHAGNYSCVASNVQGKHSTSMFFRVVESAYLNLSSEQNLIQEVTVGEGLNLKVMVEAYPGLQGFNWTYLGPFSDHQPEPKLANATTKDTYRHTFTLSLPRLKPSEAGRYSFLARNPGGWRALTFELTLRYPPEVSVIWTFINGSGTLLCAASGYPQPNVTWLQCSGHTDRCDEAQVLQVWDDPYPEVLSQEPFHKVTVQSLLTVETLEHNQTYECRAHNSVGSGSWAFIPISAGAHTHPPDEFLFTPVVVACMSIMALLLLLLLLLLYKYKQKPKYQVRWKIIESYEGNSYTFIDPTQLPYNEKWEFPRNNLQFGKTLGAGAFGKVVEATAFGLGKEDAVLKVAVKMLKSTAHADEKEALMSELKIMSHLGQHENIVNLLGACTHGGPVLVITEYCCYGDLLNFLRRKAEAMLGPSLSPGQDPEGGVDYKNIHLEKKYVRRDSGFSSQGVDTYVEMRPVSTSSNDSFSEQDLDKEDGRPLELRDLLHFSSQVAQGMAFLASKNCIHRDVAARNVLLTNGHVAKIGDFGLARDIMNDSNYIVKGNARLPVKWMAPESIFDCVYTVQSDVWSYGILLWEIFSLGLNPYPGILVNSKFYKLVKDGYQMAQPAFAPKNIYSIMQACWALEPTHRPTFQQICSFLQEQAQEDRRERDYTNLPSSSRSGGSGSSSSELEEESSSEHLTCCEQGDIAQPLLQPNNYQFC
T2 sequence (P07333 20-512 limits assumed): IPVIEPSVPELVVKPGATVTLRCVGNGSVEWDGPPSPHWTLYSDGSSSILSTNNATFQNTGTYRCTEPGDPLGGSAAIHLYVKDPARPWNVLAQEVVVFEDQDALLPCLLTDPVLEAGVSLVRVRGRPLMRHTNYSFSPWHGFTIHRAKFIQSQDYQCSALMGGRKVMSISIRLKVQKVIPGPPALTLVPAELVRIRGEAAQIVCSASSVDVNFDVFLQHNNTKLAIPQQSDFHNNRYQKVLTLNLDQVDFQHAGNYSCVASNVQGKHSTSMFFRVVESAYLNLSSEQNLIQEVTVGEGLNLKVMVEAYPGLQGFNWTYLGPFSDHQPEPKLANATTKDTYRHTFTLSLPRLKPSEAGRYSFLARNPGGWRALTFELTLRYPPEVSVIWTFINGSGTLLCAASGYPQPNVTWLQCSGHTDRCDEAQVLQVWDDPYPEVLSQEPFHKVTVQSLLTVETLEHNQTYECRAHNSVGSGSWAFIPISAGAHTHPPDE
T1 sequence (P07333 20-512 limits assumed): as above

B1: ch73 (antibody, human IgG1, kappa, V domains shown)
VH: EVQLQQFGAELVKPGASVKISCKASGYTFTDYNMDWMKQSHGKSLEWIGDIIPNYDSATYNQKFKGKATLTVDRSSSTAYMELRSLSSEDTAVYYCARKGGGYVNWYFDVWGAGTTVTVSS
VL: DIQMNQSPSSLSASLGDTITITCHASQNINVWLSWYQQKPGNIPKLLIYKASNLHTGVPSRFSGSGSGTGFTLTISSLQPEDIATYYCQQGESYPYTFGGGTKLEIKR
notes: also called 嵌合抗体ch73; 73号
In test [1], B1 displayed an IC50 of 0.323 nM. Besides, in test [2], the Kd is 0.03 nM, the koff came out at 6.54e-06 s⁻¹ and the kon turned out to be 218000 M⁻¹ s⁻¹. In test [3], this molecule had an IC50 of around 0.71 nM. In test [4], the Kd stood at 0.03 nM, the koff is 6.54e-06 s⁻¹ and the kon was 218000 M⁻¹ s⁻¹.

B2: Lm1H (antibody, V domains shown)
VH: EVQLVQSGAEVKKPGASVKVSCKASGYTFTDYNMDWVRQAPGQGLEWMGDIIPNYDSATYNQKFKGRVTMTRDTSTSTVYMELSSLRSEDTAVYYCARKGGGYVNWYFDVWGQGTTVTVSS
VL: DIQMTQSPSSLSASVGDRVTITCRASQNINVWLSWYQQKPGKAPKLLIYKASNLHTGVPSRFSGSGSGTDFTFTISSLQPEDIATYYCQQGESYPYTFGGGTKVEIK
On to B2, for which, in test [4], the Kd came to 0.0683 nM, the off-rate (koff) was determined as 1.4e-05 s⁻¹ and the kon is 205000 M⁻¹ s⁻¹.

B3: Lm3H (antibody, V domains shown)
VH: EVQLVQSGAEVKKPGASVKVSCKASGYTFTDYNMDWVRQAPGQGLEWMGDIIPNYDSATYNQKFKGRVTMTRDTSTSTVYMELSSLRSEDTAVYYCARKGGGYVNWYFDVWGQGTTVTVSS
VL: DIQMTQSPSSLSASVGDRVTITCHASQNINVWLNWYQQKPGKAPKLLIYKASNLHTGVPSRFSGSGSGTDFTFTISSLQPEDIATYYCQQGESYPYTFGGGTKVEIK
Take B3: in test [4], the Kd worked out at 0.0935 nM, the koff worked out at 1.45e-05 s⁻¹ and the kon was found to be 155000 M⁻¹ s⁻¹. Also, the EC50 in test [5] was 0.253 µg/mL.

B4: Hm6L (antibody, V domains shown)
VH: EVQLVQSGAEVKKPGASVKVSCKASGYTFTDYNMDWVRQAPGQGLEWMGDIIPNYDSATYAQKFKGRVTMTRDTSTSTVYMELSSLRSEDTAVYYCARKGGGYVNWYFDVWGQGTTVTVSS
VL: DIQMTQSPSSLSASVGDRVTITCHASQNINVWLSWYQQKPGKAPKLLIYKASNLHTGVPSRFSGSGSGTDFTFTISSLQPEDIATYYCQQGESYPYTFGGGTKVEIK
As to B4, in test [4], the Kd came to 0.0785 nM, the dissociation rate constant (koff) came out at 1.53e-05 s⁻¹ and the kon turned out to be 195000 M⁻¹ s⁻¹. In test [5], this molecule had a 50% effective concentration (EC50) of 0.199 µg/mL.

B5: Lm2H (antibody, V domains shown)
VH: EVQLVQSGAEVKKPGASVKVSCKASGYTFTDYNMDWVRQAPGQGLEWMGDIIPNYDSATYNQKFKGRVTMTRDTSTSTVYMELSSLRSEDTAVYYCARKGGGYVNWYFDVWGQGTTVTVSS
VL: DIQMTQSPSSLSASVGDRVTITCHASQNINVYLSWYQQKPGKAPKLLIYKASNLHTGVPSRFSGSGSGTDFTFTISSLQPEDIATYYCQQGESYPYTFGGGTKVEIK
B5: in test [4], the Kd came to 0.109 nM, the koff was found to be 1.14e-05 s⁻¹ and the kon came to 105000 M⁻¹ s⁻¹.

B6: Hm4L (antibody, V domains shown)
VH: EVQLVQSGAEVKKPGASVKVSCKASGYTFTDYNMDWVRQAPGQGLEWMGGIIPNYDSATYNQKFKGRVTMTRDTSTSTVYMELSSLRSEDTAVYYCARKGGGYVNWYFDVWGQGTTVTVSS
VL: DIQMTQSPSSLSASVGDRVTITCHASQNINVWLSWYQQKPGKAPKLLIYKASNLHTGVPSRFSGSGSGTDFTFTISSLQPEDIATYYCQQGESYPYTFGGGTKVEIK
As for B6, in test [4], the Kd turned out to be 0.125 nM, the koff came out at 1.4e-05 s⁻¹ and the kon stood at 112000 M⁻¹ s⁻¹.

B7: Lm7Hm7 (antibody, V domains shown)
VH: EVQLVQSGAEVKKPGASVKVSCKASGYTFTSYNMHWVRQAPGQGLEWMGDIIPNYESATYAQKFKGRVTMTRDTSTSTVYMELSSLRSEDTAVYYCARKGGGYVNWYFDVWGQGTTVTVSS
VL: DIQMTQSPSSLSASVGDRVTITCRASQNINVWLSWYQQKPGKAPKLLIYDASNLETGVPSRFSGSGSGTDFTFTISSLQPEDIATYYCQQGESYPYTFGGGTKVEIK
Regarding B7, in test [4], the Kd turned out to be 0.107 nM, the koff came out at 1.23e-05 s⁻¹ and the kon was found to be 115000 M⁻¹ s⁻¹.

B8: Lm7H (antibody, V domains shown)
VH: EVQLVQSGAEVKKPGASVKVSCKASGYTFTDYNMDWVRQAPGQGLEWMGDIIPNYDSATYNQKFKGRVTMTRDTSTSTVYMELSSLRSEDTAVYYCARKGGGYVNWYFDVWGQGTTVTVSS
VL: DIQMTQSPSSLSASVGDRVTITCRASQNINVWLSWYQQKPGKAPKLLIYDASNLETGVPSRFSGSGSGTDFTFTISSLQPEDIATYYCQQGESYPYTFGGGTKVEIK
Take B8: in test [4], the Kd stood at 0.0634 nM, the off-rate (koff) was determined as 1.3e-05 s⁻¹ and the kon stood at 205000 M⁻¹ s⁻¹. In test [5], this molecule gave an EC50 of 0.201 µg/mL.

B9: Lm4Hm7 (antibody, V domains shown)
VH: EVQLVQSGAEVKKPGASVKVSCKASGYTFTSYNMHWVRQAPGQGLEWMGDIIPNYESATYAQKFKGRVTMTRDTSTSTVYMELSSLRSEDTAVYYCARKGGGYVNWYFDVWGQGTTVTVSS
VL: DIQMTQSPSSLSASVGDRVTITCHASQNINVYLNWYQQKPGKAPKLLIYKASNLHTGVPSRFSGSGSGTDFTFTISSLQPEDIATYYCQQGESYPYTFGGGTKVEIK
B9: in test [4], the equilibrium dissociation constant (Kd) was found to be 0.138 nM, the koff is 2.02e-05 s⁻¹ and the on-rate constant (kon) was determined as 146000 M⁻¹ s⁻¹.

B10: Hm2L (antibody, V domains shown)
VH: EVQLVQSGAEVKKPGASVKVSCKASGYTFTSYNMDWVRQAPGQGLEWMGDIIPNYDSATYNQKFKGRVTMTRDTSTSTVYMELSSLRSEDTAVYYCARKGGGYVNWYFDVWGQGTTVTVSS
VL: DIQMTQSPSSLSASVGDRVTITCHASQNINVWLSWYQQKPGKAPKLLIYKASNLHTGVPSRFSGSGSGTDFTFTISSLQPEDIATYYCQQGESYPYTFGGGTKVEIK
For B10, in test [4], the Kd was 0.0963 nM, the koff worked out at 2.9e-05 s⁻¹ and the kon was 301000 M⁻¹ s⁻¹.

B11: Lm5H (antibody, V domains shown)
VH: EVQLVQSGAEVKKPGASVKVSCKASGYTFTDYNMDWVRQAPGQGLEWMGDIIPNYDSATYNQKFKGRVTMTRDTSTSTVYMELSSLRSEDTAVYYCARKGGGYVNWYFDVWGQGTTVTVSS
VL: DIQMTQSPSSLSASVGDRVTITCHASQNINVWLSWYQQKPGKAPKLLIYDASNLHTGVPSRFSGSGSGTDFTFTISSLQPEDIATYYCQQGESYPYTFGGGTKVEIK
In the case of B11, in test [4], the Kd was 0.105 nM, the koff came to 2.1e-05 s⁻¹ and the kon came to 200000 M⁻¹ s⁻¹.

B12: Hm3L (antibody, V domains shown)
VH: EVQLVQSGAEVKKPGASVKVSCKASGYTFTDYNMHWVRQAPGQGLEWMGDIIPNYDSATYNQKFKGRVTMTRDTSTSTVYMELSSLRSEDTAVYYCARKGGGYVNWYFDVWGQGTTVTVSS
VL: DIQMTQSPSSLSASVGDRVTITCHASQNINVWLSWYQQKPGKAPKLLIYKASNLHTGVPSRFSGSGSGTDFTFTISSLQPEDIATYYCQQGESYPYTFGGGTKVEIK
In the case of B12, in test [4], the Kd worked out at 0.082 nM, the koff was 2.1e-05 s⁻¹ and the kon amounted to 256000 M⁻¹ s⁻¹.

B13: Lm6H (antibody, V domains shown)
VH: EVQLVQSGAEVKKPGASVKVSCKASGYTFTDYNMDWVRQAPGQGLEWMGDIIPNYDSATYNQKFKGRVTMTRDTSTSTVYMELSSLRSEDTAVYYCARKGGGYVNWYFDVWGQGTTVTVSS
VL: DIQMTQSPSSLSASVGDRVTITCHASQNINVWLSWYQQKPGKAPKLLIYKASNLETGVPSRFSGSGSGTDFTFTISSLQPEDIATYYCQQGESYPYTFGGGTKVEIK
As to B13, in test [4], the dissociation constant (Kd) is 0.188 nM, the koff stood at 1.9e-05 s⁻¹ and the kon was 101000 M⁻¹ s⁻¹.

B14: Hm1L (antibody, V domains shown)
VH: EVQLVQSGAEVKKPGASVKVSCKASGYTFTEYNMDWVRQAPGQGLEWMGDIIPNYDSATYNQKFKGRVTMTRDTSTSTVYMELSSLRSEDTAVYYCARKGGGYVNWYFDVWGQGTTVTVSS
VL: DIQMTQSPSSLSASVGDRVTITCHASQNINVWLSWYQQKPGKAPKLLIYKASNLHTGVPSRFSGSGSGTDFTFTISSLQPEDIATYYCQQGESYPYTFGGGTKVEIK
Regarding B14, in test [4], the Kd was found to be 0.0853 nM, the koff was found to be 2.2e-05 s⁻¹ and the kon is 258000 M⁻¹ s⁻¹.

B15: Lm4H (antibody, V domains shown)
VH: EVQLVQSGAEVKKPGASVKVSCKASGYTFTDYNMDWVRQAPGQGLEWMGDIIPNYDSATYNQKFKGRVTMTRDTSTSTVYMELSSLRSEDTAVYYCARKGGGYVNWYFDVWGQGTTVTVSS
VL: DIQMTQSPSSLSASVGDRVTITCHASQNINVYLNWYQQKPGKAPKLLIYKASNLHTGVPSRFSGSGSGTDFTFTISSLQPEDIATYYCQQGESYPYTFGGGTKVEIK
As for B15, in test [4], the Kd came to 0.189 nM, the koff came out at 1.93e-05 s⁻¹ and the kon is 102000 M⁻¹ s⁻¹.

B16: Hm5L (antibody, V domains shown)
VH: EVQLVQSGAEVKKPGASVKVSCKASGYTFTDYNMDWVRQAPGQGLEWMGDIIPNYESATYNQKFKGRVTMTRDTSTSTVYMELSSLRSEDTAVYYCARKGGGYVNWYFDVWGQGTTVTVSS
VL: DIQMTQSPSSLSASVGDRVTITCHASQNINVWLSWYQQKPGKAPKLLIYKASNLHTGVPSRFSGSGSGTDFTFTISSLQPEDIATYYCQQGESYPYTFGGGTKVEIK
Take B16: in test [4], the equilibrium dissociation constant (Kd) was 0.0794 nM, the dissociation rate constant (koff) worked out at 2.55e-05 s⁻¹ and the kon was 321000 M⁻¹ s⁻¹.
